B1: LS21 (scFv)
scFv: EVQLVQSGAEVKKPGESLKVSCKASGYTFTSYYMHWVRQAPGQGLEWMGIINPSGGSTSYAQKFQGRVTMTRDTSTSTVYMELSSLRSEDTAVYYCARGSAYYYDFADYWGQGTLVTVSSGGGGSGGGGSGGGGSQPVLTQPSSVSVAPGQTATISCGGHNIGSKNVHWYQQRPGQSPVLVIYQDNKRPSGIPERFSGSNSGNTATLTISGTQAMDEADYYCQVWDNYSVLFGGGTKLTVL
notes: also called positive control

Tests used:
[1] = target: Human CD16B (NA2) on NK92mi/CD16B (NA2) cells (human) (UniProt O75015); test: flow cytometry on NK92mi/CD16B(NA2) cells, anti-human IgG Fc detection
[2] = target: Human CD16B (NA1) on NK92mi/CD16B (NA1) cells (human) (UniProt O75015); test: flow cytometry on NK92mi/CD16B(NA1) cells, anti-human IgG Fc detection
[3] = target: Human CD16A (V158) on NK92mi/CD16A V158 cells (human) (UniProt P08637); test: flow cytometry on NK92mi/CD16A V158 cells, anti-human IgG Fc detection
human CD16B-His6 (SH) = target: T1, human CD16B-His6 (SH) (human, UniProt O75015 17-200); test: antigen ELISA, coated human CD16B-His6 (SH), HRP anti-human IgG
T1 construct: Bought ECD fragment (Sino Biologics); also called CD16B SH allotype; human CD16B (SH); not shown: six-histidine tag
T1 sequence (O75015 17-200): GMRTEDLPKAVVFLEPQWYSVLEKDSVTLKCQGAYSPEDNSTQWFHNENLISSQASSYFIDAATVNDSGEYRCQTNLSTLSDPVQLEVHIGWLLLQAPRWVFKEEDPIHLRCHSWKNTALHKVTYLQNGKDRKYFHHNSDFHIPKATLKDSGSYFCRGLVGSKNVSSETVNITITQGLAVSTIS

Chain of Human CD16B (NA1) on NK92mi/CD16B (NA1) cells (human) (O75015 other isoform, or with tags, fused parts or gaps limits assumed): as the sequence (O75015 17-200) above, with S20R, N66D, I90V counted along it
Chain of Human CD16B (NA2) on NK92mi/CD16B (NA2) cells (human) (O75015 17-200 N65S limits assumed): as the sequence (O75015 17-200) above, with N49S counted along it
Chain of Human CD16A (V158) on NK92mi/CD16A V158 cells (human) (P08637 17-254 F176V limits assumed): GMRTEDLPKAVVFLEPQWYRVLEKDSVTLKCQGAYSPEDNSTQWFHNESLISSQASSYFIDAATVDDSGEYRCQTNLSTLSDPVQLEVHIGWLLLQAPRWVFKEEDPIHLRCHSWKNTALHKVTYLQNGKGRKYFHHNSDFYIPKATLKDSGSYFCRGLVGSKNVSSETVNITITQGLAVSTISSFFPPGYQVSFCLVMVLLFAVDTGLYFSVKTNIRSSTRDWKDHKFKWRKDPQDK

Molecule | EC50 [1] [µg/mL] | EMAX [1] | EC50 [2] [µg/mL] | EMAX [2] | EC50 [3] [µg/mL] | EMAX [3] | binding result (human CD16B-His6 (SH))
Human IgG (antibody) | 0.314 | 7.66 | 10.3 | 7.46 | 0.0112 | 7.55 | –
B1 | – | – | – | – | – | – | no binding (tested: 1 ug/ml)

Reference: patent publication US20260008853A1 (BEONE MEDICINES I, published 2026)
